Earlier results on three molecules are cited in patent US20070166367A1, “Adept or gdept producing acetaldehyde” (priority 2004, published 2007).

Where two headings read alike, the source gives them in different places.

B1: Human class IV: human class IV alcohol dehydrogenase (protein, UniProt P40394 1-386, looked up)
All-trans-retinol …: MFAEIQIQDKDRMGTAGKVIKCKAAVLWEQKQPFSIEEIEVAPPKTKEVRIKILATGICRTDDHVIKGTMVSKFPVIVGHEATGIVESIGEGVTTVKPGDKVIPLFLPQCRECNACRNPDGNLCIRSDITGRGVLADGTTRFTCKGKPVHHFMNTSTFTEYTVVDESSVAKIDDAAPPEKVCLIGCGFSTGYGAAVKTGKVKPGSTCVVFGLGGVGLSVIMGCKSAGASRIIGIDLNKDKFEKAMAVGATECISPKDSTKPISEVLSEMTGNNVGYTFEVIGHLETMIDALASCHMNYGTSVVVGVPPSAKMLTYDPMLLFTGRTWKGCVFGGLKSRDDVPKLVTEFLAKKFDLDQLITHVLPFKKISEGFELLNSGQSIRTVLTF
As usually defined, the Km is the substrate concentration at which the rate is half of its maximum. Take B1: under “for ethanol”, the Michaelis constant (Km) was 37000 µM.

B2: Human B2: human alcohol dehydrogenase β2, atypical liver class I enzyme, B2B2 homodimer (protein, UniProt P00325 2-375, looked up)
All-trans-retinol …: STAGKVIKCKAAVLWEVKKPFSIEDVEVAPPKAYEVRIKMVAVGICHTDDHVVSGNLVTPLPVILGHEAAGIVESVGEGVTTVKPGDKVIPLFTPQCGKCRVCKNPESNYCLKNDLGNPRGTLQDGTRRFTCRGKPIHHFLGTSTFSQYTVVDENAVAKIDAASPLEKVCLIGCGFSTGYGSAVNVAKVTPGSTCAVFGLGGVGLSAVMGCKAAGAARIIAVDINKDKFAKAKELGATECINPQDYKKPIQEVLKEMTDGGVDFSFEVIGRLDTMMASLLCCHEACGTSVIVGVPPASQNLSINPMLLLTGRTWKGAVYGGFKSKEGIPKLVADFMAKKFSLDALITHVLPFEKINEGFDLLHSGKSIRTVLTF
modifications: beta2 allele homodimer
For the molecule B2, for the setting “'physiological' ethanol concentrations”, the “enzymatic rate relative to the usual human ADH enzymes” value is reported as “at least 16 fold”. In addition, for the setting “for ethanol”, the Michaelis-Menten constant (Km) is 940 µM. Also, for the setting “pH 7.5”, the “Vmax relative to the usual human alpha, beta and gamma variants” value was “(Note at pH 7.5 the Vmax of beta 2 is 5-40 times higher that the usual human alpha, beta and gamma variants)”.

B3: Human B1: usual human alcohol dehydrogenase B1 isoenzyme (protein, UniProt P00325 2-375, looked up)
All-trans-retinol …: STAGKVIKCKAAVLWEVKKPFSIEDVEVAPPKAYEVRIKMVAVGICHTDDHVVSGNLVTPLPVILGHEAAGIVESVGEGVTTVKPGDKVIPLFTPQCGKCRVCKNPESNYCLKNDLGNPRGTLQDGTRRFTCRGKPIHHFLGTSTFSQYTVVDENAVAKIDAASPLEKVCLIGCGFSTGYGSAVNVAKVTPGSTCAVFGLGGVGLSAVMGCKAAGAARIIAVDINKDKFAKAKELGATECINPQDYKKPIQEVLKEMTDGGVDFSFEVIGRLDTMMASLLCCHEACGTSVIVGVPPASQNLSINPMLLLTGRTWKGAVYGGFKSKEGIPKLVADFMAKKFSLDALITHVLPFEKINEGFDLLHSGKSIRTVLTF
For the molecule B3, the Km is 49 µM.
